Results from article PMC7666189.

Substrate: O=C(/C=C/c1ccc(O)c(O)c1)O[C@@H]1C[C@](O)(C(=O)O)C[C@@H](O)[C@H]1O
Experiment: purified protein
Settings: 5-CQA as sole substrate (acyl donor and acceptor), 0-30 mM, enzyme from N. benthamiana, optimum pH 6.3 and 39.9 °C, pH and temperature of the Km assay not given

B1: IbICS (Ipomoea batatas) (protein)
chain: CYSAVFGFGDSLTDAGNLIRLEPDGTVPHMYFPPYGETYFDKPTGRCSDGRLIVDLIAQHYGLPLPPPSIPASLEGDKNRLRAGVNFAVVGSRALDAQFYEQRDIFDTVTNVSMTDQLNWFKELLPSLCSSPHDCKELLDGSLFVLGEFGGNDYTHSLLSGKGINVIRPFIPIVTRAIAQAVHELVELGARTVMIPSVLPLGCAASYLTYYPSPNPDDYDELGCLIWVNEMASYHNQLLQQQLAHVRELHPYANIVFADIYNAAMEVYQGPDTYGFSGGALRACCGGGGPYNFNTSAQCGNEGATACDNPSSYVNWDGYHLTEAAYQCITTGLLEGPYTYPRMKNLCRFDSRKTSRVAQI
  Km: 3.5 mM
